# Reference: patent publication US20080219985A1
# Read-outs that look alike come from different tables or passages of the source.
# Assays:
# Assay in all cases: cell-based or functional assay
# GPCR73a receptor (human) [1] = target: GPCR73a receptor (human) (UniProt Q8TCW9)
# [2] = target: GPCR73b receptor (Homo sapiens (Human)) (UniProt Q8NFJ6)
# [3] = target: PROK2 receptor on Wky12-22 cells (rat aortic smooth muscle cells) (rat)
# GPCR73a receptor (human) [4] = target: GPCR73a receptor (human) (UniProt Q8TCW9); remark: listed apart in the source
# [5] = target: GPCR73b receptor (Homo sapiens (Human)) (UniProt Q8NFJ6); remark: listed apart in the source
# GPCR73a receptor (human), sequence (Q8TCW9 whole entry): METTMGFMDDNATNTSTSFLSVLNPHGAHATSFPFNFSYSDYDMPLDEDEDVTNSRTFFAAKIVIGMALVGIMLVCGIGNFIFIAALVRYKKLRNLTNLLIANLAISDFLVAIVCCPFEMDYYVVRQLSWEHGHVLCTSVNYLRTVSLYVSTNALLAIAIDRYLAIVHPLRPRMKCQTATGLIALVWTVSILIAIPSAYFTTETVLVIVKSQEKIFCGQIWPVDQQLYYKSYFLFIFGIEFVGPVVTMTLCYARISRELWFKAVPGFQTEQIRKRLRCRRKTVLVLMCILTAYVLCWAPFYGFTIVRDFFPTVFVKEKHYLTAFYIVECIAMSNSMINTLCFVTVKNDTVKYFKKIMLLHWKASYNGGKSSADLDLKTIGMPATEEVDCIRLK
# GPCR73b receptor (Homo sapiens (Human)), sequence (Q8NFJ6 whole entry): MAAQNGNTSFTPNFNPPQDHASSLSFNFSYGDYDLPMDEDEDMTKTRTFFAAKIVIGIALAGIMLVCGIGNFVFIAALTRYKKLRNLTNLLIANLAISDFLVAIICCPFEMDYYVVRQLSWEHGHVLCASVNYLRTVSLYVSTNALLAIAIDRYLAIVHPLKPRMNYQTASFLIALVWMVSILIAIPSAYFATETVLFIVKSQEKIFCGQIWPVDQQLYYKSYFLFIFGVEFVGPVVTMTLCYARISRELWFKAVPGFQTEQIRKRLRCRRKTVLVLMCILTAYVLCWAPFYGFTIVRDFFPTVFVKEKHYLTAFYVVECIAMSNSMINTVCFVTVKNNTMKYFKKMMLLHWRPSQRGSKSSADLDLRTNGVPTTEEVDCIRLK
binder,measurement,setting,value
human PROK1 purchased from PeproTech (ligand) AVITGACERDVQCGAGTCCAISLWLRGLRMCTPLGREGEECHPGSHKVPFFRKRKHHTCPCLPNLLCSRFPDGRYRCSMDLKNINF,SRE-luciferase fold-induction at 1 ng/ml (fold-induction),GPCR73a receptor (human) [1],1.2
same,SRE-luciferase fold-induction at 3.2 ng/ml (fold-induction),GPCR73a receptor (human) [1],1.6
same,SRE-luciferase fold-induction at 10 ng/ml (fold-induction),GPCR73a receptor (human) [1],2.5
same,SRE-luciferase fold-induction at 32 ng/ml (fold-induction),GPCR73a receptor (human) [1],5.8
same,SRE-luciferase fold-induction at 100 ng/ml (fold-induction),GPCR73a receptor (human) [1],11.4
same,SRE-luciferase fold-induction at 320 ng/ml (fold-induction),GPCR73a receptor (human) [1],24.4
same,SRE-luciferase fold-induction at 1000 ng/ml (fold-induction),GPCR73a receptor (human) [1],20
same,SRE-luciferase fold-induction at 1 ng/ml (fold-induction),[2],1.1
same,SRE-luciferase fold-induction at 3.2 ng/ml (fold-induction),[2],1.3
same,SRE-luciferase fold-induction at 10 ng/ml (fold-induction),[2],1.8
same,SRE-luciferase fold-induction at 32 ng/ml (fold-induction),[2],2.8
same,SRE-luciferase fold-induction at 100 ng/ml (fold-induction),[2],5.6
same,SRE-luciferase fold-induction at 320 ng/ml (fold-induction),[2],8.3
same,SRE-luciferase fold-induction at 1000 ng/ml (fold-induction),[2],8.4
same,EC50 of GROα secretion from Wky12-22 cells,[3],2.94 ng/mL
same,SRE-luciferase fold-induction at 1 ng/ml (fold-induction),GPCR73a receptor (human) [4],0.95
same,SRE-luciferase fold-induction at 3.2 ng/ml (fold-induction),GPCR73a receptor (human) [4],1.3
same,SRE-luciferase fold-induction at 10 ng/ml (fold-induction),GPCR73a receptor (human) [4],2.6
same,SRE-luciferase fold-induction at 32 ng/ml (fold-induction),GPCR73a receptor (human) [4],7.2
same,SRE-luciferase fold-induction at 320 ng/ml (fold-induction),GPCR73a receptor (human) [4],20.5
same,SRE-luciferase fold-induction at 1000 ng/ml (fold-induction),GPCR73a receptor (human) [4],15
same,SRE-luciferase fold-induction at 3.2 ng/ml (fold-induction),[5],1.4
same,SRE-luciferase fold-induction at 32 ng/ml (fold-induction),[5],2.7
same,SRE-luciferase fold-induction at 100 ng/ml (fold-induction),[5],4.1
same,SRE-luciferase fold-induction at 320 ng/ml (fold-induction),[5],5.8
same,SRE-luciferase fold-induction at 1000 ng/ml (fold-induction),[5],6.1
